# B1: VEGFDΔNΔC (ligand)
# chain: FYDIETLKVIDEEWQRTQCSPRETCVEVASELGKSTNTFFKPPCVNVFRCGGCCNEESLICMNTSTSYISKQLFEISVPLTSVPELVPVKVANHTGCKCLPTAPRHPYS
# notes: also called internal VEGF-D polypeptide; fraction #3; not shown: FLAG octapeptide at the N-terminus
# Biological target: T1, VEGFR2-EpoR chimeric receptor (mouse VEGFR2 extracellular domain with mouse EpoR transmembrane and … (mouse, UniProt P35918 20-762; P14753 250-507, limits assumed)
# T1 construct: extracellular domain;domain: transmembrane and cytoplasmic domains; Expressed on the surface of Ba/F3 cells (line Ba/F3-NYK-EpoR); also called VEGF receptor-2; Flk-1
# T1 sequence (P35918 other isoform, or with tags, fused parts or gaps mutant limits assumed): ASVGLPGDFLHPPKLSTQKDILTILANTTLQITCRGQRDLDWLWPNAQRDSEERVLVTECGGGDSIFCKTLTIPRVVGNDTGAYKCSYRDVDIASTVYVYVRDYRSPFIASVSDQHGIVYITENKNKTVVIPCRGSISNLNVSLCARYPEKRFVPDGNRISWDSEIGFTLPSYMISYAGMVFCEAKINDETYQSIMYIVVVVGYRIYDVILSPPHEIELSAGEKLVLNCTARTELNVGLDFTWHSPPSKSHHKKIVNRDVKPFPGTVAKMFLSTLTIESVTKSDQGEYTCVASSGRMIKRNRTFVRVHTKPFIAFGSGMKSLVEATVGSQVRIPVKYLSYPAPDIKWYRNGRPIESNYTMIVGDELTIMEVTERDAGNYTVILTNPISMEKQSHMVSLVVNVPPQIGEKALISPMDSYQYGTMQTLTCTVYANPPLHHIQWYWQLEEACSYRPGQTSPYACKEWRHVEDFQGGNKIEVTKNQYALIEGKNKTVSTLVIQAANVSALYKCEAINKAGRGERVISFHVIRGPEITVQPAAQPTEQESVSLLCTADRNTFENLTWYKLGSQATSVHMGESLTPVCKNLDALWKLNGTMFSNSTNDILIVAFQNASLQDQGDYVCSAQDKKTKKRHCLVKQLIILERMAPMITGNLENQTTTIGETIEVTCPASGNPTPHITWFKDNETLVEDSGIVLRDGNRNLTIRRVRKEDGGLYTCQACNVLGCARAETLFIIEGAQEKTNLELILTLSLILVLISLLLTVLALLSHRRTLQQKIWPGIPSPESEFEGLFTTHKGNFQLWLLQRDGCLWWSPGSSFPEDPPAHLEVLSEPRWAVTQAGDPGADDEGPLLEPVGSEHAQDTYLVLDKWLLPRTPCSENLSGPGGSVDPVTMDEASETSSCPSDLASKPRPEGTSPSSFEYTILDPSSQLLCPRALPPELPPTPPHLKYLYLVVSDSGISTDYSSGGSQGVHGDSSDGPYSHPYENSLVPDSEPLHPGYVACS
# Assay: Ba/F3 VEGFR2-EpoR bioassay (binding inferred from proliferation)
# Description: Recombinant VEGFDΔNΔC, and material purified by M2 affinity chromatography, was assessed using the VEGFR2 bioassay. Bioassay cells (10^4), washed to remove IL-3, were incubated with aliquots of conditioned medium from VEGF-D transfected COS cells, fraction #1 from the affinity column (void volume), or fraction #3 from the affinity column (containing VEGFDΔNΔC). All samples were tested at an initial concentration of 20% (i.e., ⅕) followed by doubling dilutions. Cells were allowed to incubate for 48 hours at 37° C. in a humidified atmosphere of 10% CO_2. Cell proliferation was quantitated by the addition of 1 μCi of ^3H-thymidine and counting the amount incorporated over a period of 4 hours.
# The bioassay for the capacity of polypeptides to bind to VEGF receptor-2 is described in detail in Example 7. Aliquots of fractions eluted from the M2 affinity column, containing the VEGFDΔNΔC protein, were diluted in medium and tested in the VEGFR2 bioassay as previously described.
binder,measurement,value
B1,binding result,binds

# From patent US7410639 (VEGENICS, dated 2008)
